Assay results reported in patent US20190345459A1 (YEDA RESEARCH AND DEVELOPMENT, published 2019).

B1: Xyn11V-a (SEQ ID No. 3) (enzyme)
chain: MHHHHHHDVVITSNQTGTHGGYNFEYWKDTGNGTMVLKDGGAFSCEWSNINNILFRKGFKYDETKTHDQLGYITVTYSCNYQPNGNSYLGVYGWTSNPLVEYYIIESWGTWRPPGATPKGTITVDGGTYEIYETTRVNQPSIKGTATFQQYWSVRTSKRTSGTISVTEHFKAWERLGMKMGKMYEVALVVEGYQSSGKADVTSMTITVGNAPSTSSPPGPTPEPTPRSAFSKIEAEEYNSLKSSTIQTIGTSDGGSGIGYIESGDYLVFNKINFGNGANSFKARVASGADTPTNIQLRLGSPTGTLIGTLTVASTGGWNNYEEKSCSITNTTGQHDLYLVFSGPVNIDYFIFDSKGVNPTPTPTSTTTPTPKFIYGDVDGNGSVRINDAVLIRDYVLGKINEFPYEYGMLAADVDGNGSIKINDAVLVRDYVLGKIFLFPVEEKEELEHHHHHH
B2: Xyn-c-Lac (SEQ ID No. 1), chimeric bifunctional xylanase-dockerin-laccase (enzyme)
chain: MGSSHHHHHHKNADSYAKKPHISALNAPQLDQRYKNEFTIGAAVEPYQLQNEKDVQMLKRHFNSIVAENVMKPISIQPEEGKFNFEQADRIVKFAKANGMDIRFHTLVWHSQVPQWFFLDKEGKPMVNETDPVKREQNKQLLLKRLETHIKTIVERYKDDIKYWDVVNEVVGDDGKLRNSPWYQIAGIDYIKVAFQAARKYGGDNIKLYMNDYNTEVEPKRTALYNLVKQLKEEGVPIDGIGHQSHIQIGWPSEAEIEKTINMFAALGLDNQITELDVSMYGWPPRAYPTYDAIPKQKFLDQAARYDRLFKLYEKLSDKISNVTFWGIADNHTWLDSRADVYYDANGNVVVDPNAPYAKVEKGKGKDAPFVFGPDYKVKPAYWAIIDHKSAGENLYFQGTSPVIVYGDYNNDGNVDALDFAGLKKYIMAADHAYVKNLDVNLDNEVNAFDLAILKKYLLGMVSKLPSQDPNSVTGTVVELAPGIHAGFTGRAGGVSGEPYATLNLGDHVGDDPAAVAENRRRAALGFGISPDRVVWMNQVHGATAVTVTGSGQAGDVDAVVTPEAGLALAVLVADCLPLLVADAAAGVIGAAHAGRPGMAAGVVPALVAEMARHGARPERCVALLGPAICGRCYEVPRDLQDRVARTVPEARCTTAEGTPGLDIRAGVTAQLTNLGVTNITHDSRCTRESADLFSYRRDATTGRFAGYVWRVP
notes: Recombinant, expressed in E. coli, His-tagged; also called xylanase-tagged laccase; bifunctional xylanase-laccase
B3: t-48A (SEQ ID No. 4) (enzyme)
chain: MAHHHHHHAVESSSTGLGDLNGDGNINSSDLQALKRHLLGISPLTGEALLRADVNRSGKVDSTDYSVLKRYILRIITEVPGHDSAEVTVREIDPNTSSYDQAFLEQYEKIKDPASGYFREFNGLLVPYHSVETMIVEAPDHGHQTTSEAFSYYLWLEAYYGRVTGDWKPLHDAWESMETFIIPGTKDQPTNSAYNPNSPATYIPEQPNADGYPSPLMNNVPVGQDPLAQELSSTYGTNEIYGMHWLLDVDNVYGFGFCGDGTDDAPAYINTYQRGARESVWETIPHPSCDDFTHGGPNGYLDLFTDDQNYAKQWRYTNAPDADARAVQVMFWAHEWAKEQGKENEIAGLMDKASKMGDYLRYAMFDKYFKKIGNCVGATSCPGGQGKDSAHYLLSWYYSWGGSLDTSSAWAWRIGSSSSHQGYQNVLAAYALSQVPELQPDSPTGVQDWATSFDRQLEFLQWLQSAEGGIAGGATNSWKGSYDTPPTGLSQFYGMYYDWQPVWNDPPSNNWFGFQVWNMERVAQLYYVTGDARAEAILDKWVPWAIQHTDVDADNGGQNFQVPSDLEWSGQPDTWTGTYTGNPNLHVQVVSYSQDVGVTAALAKTLMYYAKRSGDTTALATAEGLLDALLAHRDSIGIATPEQPSWDRLDDPWDGSEGLYVPPGWSGTMPNGDRIEPGATFLSIRSFYKNDPLWPQVEAHLNDPQNVPAPIVERHRFWAQVEIATAFAAHDELFGAGAP
B4: f-5A (SEQ ID No. 2) (enzyme)
chain: MAHHHHHHAPSPGTKLVPTWGDTNCDGVVNVADVVVLNRFLNDPTYSNITDQGKVNADVVDPQDKSGAAVDPAGVKLTVADSEAILKAIVELITLPQAVPGTQPGTGTPVERYGKVQVCGTQLCDEHGNPVQLRGMSTHGIQWFDHCLTDSSLDALAYDWKADIIRLSMYIQEDGYETNPRGFTDRMHQLIDMATARGLYVIVDWHILTPGDPHYNLDRAKTFFAEIAQRHASKTNVLYEIANEPNGVSWASIKSYAEEVIPVIRQRDPDSVIIVGTRGWSSLGVSEGSGPAEIAANPVNASNIMYAFHFYAASHRDNYLNALREASELFPVFVTEFGTETYTGDGANDFQMADRYIDLMAERKIGWTKWNYSDDFRSGAVFQPGTCASGGPWSGSSLKASGQWVRSKLQS

Key:
[1] = target: T1, tetravalent scaffoldin ScafCA(CBM)TF (SEQ ID No. 5); assay: electrophoretic mobility on non-denaturing PAGE, equimolar enzymes and scaffoldin
T1 chain: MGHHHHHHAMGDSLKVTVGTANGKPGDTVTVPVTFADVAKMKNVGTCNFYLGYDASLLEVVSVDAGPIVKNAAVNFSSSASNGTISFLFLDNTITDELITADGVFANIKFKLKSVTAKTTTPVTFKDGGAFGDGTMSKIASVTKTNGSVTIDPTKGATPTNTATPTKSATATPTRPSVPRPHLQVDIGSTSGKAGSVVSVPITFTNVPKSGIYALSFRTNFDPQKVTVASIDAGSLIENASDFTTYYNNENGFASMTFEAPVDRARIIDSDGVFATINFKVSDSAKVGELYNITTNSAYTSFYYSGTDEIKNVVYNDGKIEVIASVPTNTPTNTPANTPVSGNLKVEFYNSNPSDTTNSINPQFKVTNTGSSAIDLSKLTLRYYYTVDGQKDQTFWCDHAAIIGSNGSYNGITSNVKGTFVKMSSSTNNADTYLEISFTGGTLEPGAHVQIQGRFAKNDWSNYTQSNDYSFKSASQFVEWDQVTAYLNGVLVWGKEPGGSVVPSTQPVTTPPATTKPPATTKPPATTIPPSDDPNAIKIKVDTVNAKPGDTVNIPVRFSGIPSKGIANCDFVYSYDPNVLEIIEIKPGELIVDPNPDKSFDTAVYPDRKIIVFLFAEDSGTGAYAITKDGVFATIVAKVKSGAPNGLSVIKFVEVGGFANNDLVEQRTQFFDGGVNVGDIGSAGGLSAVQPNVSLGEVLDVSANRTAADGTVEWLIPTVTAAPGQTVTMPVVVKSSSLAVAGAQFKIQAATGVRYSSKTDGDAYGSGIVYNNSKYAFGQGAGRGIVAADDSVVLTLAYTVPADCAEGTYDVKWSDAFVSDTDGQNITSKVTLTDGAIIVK

[2] = target: T2, C. thermocellum cohesin 3 from CipA (Clostridium thermocellum, UniProt Q06851 560-704); assay: affinity-based ELISA, cohesin-dockerin binding
T2 construct: domain: cohesin 3; also called cohesin T
T2 sequence: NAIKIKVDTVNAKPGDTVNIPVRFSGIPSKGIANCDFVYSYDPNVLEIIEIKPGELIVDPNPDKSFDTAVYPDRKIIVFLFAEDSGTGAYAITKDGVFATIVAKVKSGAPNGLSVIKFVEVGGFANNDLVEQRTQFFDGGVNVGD

Row | Binder | binding result [1] | binding result [2]
1 | B1 | binds | –
2 | B2 | – | no binding
3 | B3 | binds | –
4 | B4 | binds | –
